Earlier results, collected in patent publication US6896870B1, “Diagnostic probes and therapeutics targeting uPA and uPAR” (Angstrom Pharmaceuticals, Inc., priority 1999, dated 2005).
Bridge positions count the residues as written; N and C are the ends. Ends that are not written are not given here.

Target: uPAR (Homo sapiens, UniProt Q03405)
Conditions: read-out: IC50, prevention of uPA binding to uPAR

Sequence of uPAR (Q03405 23-305): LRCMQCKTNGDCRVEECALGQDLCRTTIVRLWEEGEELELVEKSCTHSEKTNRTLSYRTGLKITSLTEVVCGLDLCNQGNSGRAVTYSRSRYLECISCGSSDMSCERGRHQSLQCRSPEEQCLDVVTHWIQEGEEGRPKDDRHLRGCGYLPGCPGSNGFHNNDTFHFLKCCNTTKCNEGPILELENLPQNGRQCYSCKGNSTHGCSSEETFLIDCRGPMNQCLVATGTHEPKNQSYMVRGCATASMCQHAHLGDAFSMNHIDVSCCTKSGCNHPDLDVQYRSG

| IC50 | Substance |
| --- | --- |
| 100 nM | [Ala^19]uPA(12-32) [[Ala^19]uPA(12-32) open chain form] (DCLNGGTAVSNKYFSNIHWCN; UniProt P00749 32-52, looked up, variant C19A) [uPA GFD peptide with two cysteines, the third cysteine replaced by Ala] |
| 40 nM | [Ala^19]uPA(12-32) [[Ala^19]uPA(12-32) oxidized cyclic form] (DCLNGGTAVSNKYFSNIHWCN; disulfide 2-20 (inferred); UniProt P00749 32-52, looked up, variant C19A) [same peptide cyclised by intrachain disulfide bond] |
